# Reference: patent US20050058651A1 (published 2005)
# Molecular target: T1, rat hnRNP M4 expressed in P388D1 mouse macrophage cells by transient transfection of hnRNP M4/pBK-CMV (rat, UniProt Q62826 2-690)
# T1 construct: also called pBK-CMV/hnRNP M4
# T1 sequence: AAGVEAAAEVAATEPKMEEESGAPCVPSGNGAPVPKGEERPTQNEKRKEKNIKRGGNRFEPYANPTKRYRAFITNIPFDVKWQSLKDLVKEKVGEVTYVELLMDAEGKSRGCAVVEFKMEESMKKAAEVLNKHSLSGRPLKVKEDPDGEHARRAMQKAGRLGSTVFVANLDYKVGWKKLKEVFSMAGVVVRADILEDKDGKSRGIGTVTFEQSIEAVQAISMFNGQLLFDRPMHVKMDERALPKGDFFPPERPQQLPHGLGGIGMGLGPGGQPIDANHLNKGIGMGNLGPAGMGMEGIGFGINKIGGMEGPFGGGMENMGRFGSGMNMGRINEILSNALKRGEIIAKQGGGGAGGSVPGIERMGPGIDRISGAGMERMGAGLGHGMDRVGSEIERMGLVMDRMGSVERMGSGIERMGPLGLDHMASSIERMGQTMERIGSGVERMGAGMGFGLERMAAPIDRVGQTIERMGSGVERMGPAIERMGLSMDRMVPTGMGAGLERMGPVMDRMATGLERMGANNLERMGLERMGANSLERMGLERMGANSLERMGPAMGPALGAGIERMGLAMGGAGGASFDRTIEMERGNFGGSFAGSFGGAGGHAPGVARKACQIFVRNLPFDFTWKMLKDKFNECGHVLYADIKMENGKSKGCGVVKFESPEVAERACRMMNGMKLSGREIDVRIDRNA
# Assay: 125I labeled CEA binding/uptake by P388D1 cells 48 h after transient transfection, compared with matching vector
# Source text: To begin to elucidate the mechanism underlying the intracellular signaling associated with KC activation and CEA binding, the hnRNP M4 cDNA in the pBK-CMV expression vector was introduced into CEA non-responsive macrophage cell lines. The hnRNP M4 transcription in this system was driven by the CMV promoter. […] An approximately 5 times increase in CEA uptake was observed on transfecting […] of hnRNP M4/pBK-CMV plasmid. This fact implies that hnRNP M4 cDNA can initiate CEA binding in P388D1 […] macrophage cell line and can act as a receptor for CEA. […] At present, the reasons for lack of response by IC21 cells are not known.
# Transient transfection of hnRNP M4 plasmid was carried out in P388D1 mouse lymphoid macrophage, IC21 mouse peritoneal and CRL2192 rat alveolar macrophage cell lines. As a positive control were used rat KC. The P388D1 cells were propagated in DMEM medium supplemented with 10% horse serum. The CRL 2192 cells were grown in F-12K medium (Kaighn's modification) supplemented with 15% FBS. The IC21 cells were grown in RPM1 1640 ATCC modified medium supplemented with 10% FBS. All cells were maintained at 37° C. in 5% CO₂ atmosphere. All tissue culture products were obtained from Life Technologies, USA. Cells for transfection were plated at 2-2.5.10⁵ cells per well in six well tissue culture clusters (Nunc products, Germany). […]
binder,measurement,value
"carcinoembryonic antigen (CEA) (ligand, UniProt P06731 35-685, looked up, 125I label in the phage-lift and cell binding assays; unlabeled soluble CEA in the blot overlay, also called soluble CEA; 125I labeled CEA) KLTIESTPFNVAEGKEVLLLVHNLPQHLFGYSWYKGERVDGNRQIIGYVIGTQQATPGPAYSGREIIYPNASLLIQNIIQNDTGFYTLHVIKSDLVNEEATGQFRVYPELPKPSISSNNSKPVEDKDAVAFTCEPETQDATYLWWVNNQSLPVSPRLQLSNGNRTLTLFNVTRNDTASYKCETQNPVSARRSDSVILNVLYGPDAPTISPLNTSYRSGENLNLSCHAASNPPAQYSWFVNGTFQQSTQELFIPNITVNNSGSYTCQAHNSDTGLNRTTVTTITVYAEPPKPFITSNNSNPVEDEDAVALTCEPEIQNTTYLWWVNNQSLPVSPRLQLSNDNRTLTLLSVTRNDVGPYECGIQNELSVDHSDPVILNVLYGPDDPTISPSYTYYRPGVNLSLSCHAASNPPAQYSWLIDGNIQQHTQELFISNITEKNSGLYTCQANNSASGHSRTTVKTITVSAELPKPSISSNNSKPVEDKDAVAFTCEPEAQNTTYLWWVNGQSLPVSPRLQLSNGNRTLTLFNVTRNDARAYVCGIQNSVSANRSDPVTLDVLYGPDTPIISPPDSSYLSGANLNLSCHSASNPSPQYSWRINGIPQQHTQVLFIAKITPNNNGTYACFVSNLATGRNNSIVKSITVSASGTSPGLSA",fold increase in CEA uptake (against vector-transfected cells),~5 times
